The target in experiment [1] is T1, human platelet membrane glycoprotein (GP)IIb/IIIa (fibrinogen receptor, integrin αIIbβ3) on human platelets (human, UniProt P08514 32-1039; P05106 27-788).
In experiment [2] the target is canine platelet (GP)IIb/IIIa on canine platelets (canine, UniProt Q9TUN8 32-1036; A0A8I3PMU9 158-919).
In experiment [3] the target is T1, human platelet membrane glycoprotein …. Put plainly: Scatchard analysis of CN binding to unactivated human platelets.

Several values for one entry are separate records, joined by “and”; a condition that tells them apart may be missing. Identical values can stand only once.

As usually defined, the IC50 is the concentration that inhibits the measured activity by half. Read a high IC50 as weaker potency in that assay. For orientation: Kd means a measure of binding affinity in units of concentration.

B1: contortrostatin (CN), homodimeric disintegrin purified from Agkistrodon contortrix contortrix (south (ligand)
chain: DAPANPCCDAATCKLTTGSQCADGLCCDQCKFMKEGTVCRRARGDDLDDYCNGISAGCPRNPFHA
notes: also called CTTX
For B1, the IC50 in experiment [1] is 25 nM and 0.4 µg/mL; in experiment [2], 0.24 µg/mL. In addition, in experiment [3], binding was characterised by a dissociation constant (Kd) of 37 nM.
